# Laboratory results published in the RNAGym collection of RNA variant scans (doi:10.1073/pnas.2313332121).
# B1: TPR t1 (parent)
# chain: GACCAAUCUGCCCUCAGAGCUCGAGAACAUCUUCGGAUGCAGAGGAGGCAGGCUUCGGUGGCGCGAUAGCGCCAACGUCCUCAACCUCCAAUGCAUCCCACCACAUGAUGAUGCCUGAAGAGCCUUGGUUUUUUG
# Variants of: B1
# Assay: polymerase ribozyme fitness, log enrichment relative to wild type (log ratio); higher = more active; in vitro selection for triplet polymerase activity
# How it was run: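 Fitness is a logarithmic measure of how a genotype enriched relative to the wild type, with replicate averages weighted by inverse variance. The logarithm uses base 2, and enrichment came from Illumina sequencing of input and output libraries. Those libraries were PCR-built, transcribed mutants of each subunit of a heterodimeric triplet polymerase ribozyme, passed through one triplicate in vitro selection round that included frozen incubation at −7 °C, gel excision of extended constructs and streptavidin-bead capture. Genotypes were kept only if they had ≥10 input reads and ≥1 read per output.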
row,Variant,polymerase ribozyme fitness (log ratio)
1,G61C G122A G128U G135U,-3.92
2,C62G U78G,-2.88
3,G61C U87A G110C,-5.84
4,C62U U87G U109A,-5.76
5,C62A C94A,-2.2
6,G61U U112A U130A,1.31
7,C62G U106G,-4.29
8,C62G A111C,-1.87
9,G61U U106G A108U,-4.45
10,G61U C97G G122U,-3.87
11,G61U C85G G127C,-2.41
12,G61U C89U U92G,-3
13,C62U C94U C98G G110U,-6.52
14,G61C G71U,-3.13
15,G61C G71A,-4.05
16,C62A C85A,-2.47
17,C62A C85U,-0.762
18,G61U C62U,-3.5
19,G61U C97G,-4.15
20,G61U G110U A111U,-4.03
21,G61C G127A U129A,-2.95
22,G61U U78A G128C,-2.72
23,C62A A74G,-5.22
24,C62G U78C U96C,-3.37

row,Variant,polymerase ribozyme fitness (log ratio)
1,G61U U109C,-2.41
2,G61C G120U,-1.08
3,C62A C64U C114A A121U C123G,-4.48
4,C62G C86U,-1.34
5,C62U U78C C85A U92C C97A,-6.24
6,C62U C70G,-3.65
7,C62A A84G G117A,-5.26
8,C62U U106A,0.471
9,G61C U132A,-1.81
10,G61U C86U G135U,-1.31
11,G61C U112C,0.0988
12,G61C U112G,-2.38
13,G61U U106A,0.146
14,G61U U106G,-0.849
15,G61C C124A,-0.457
16,C62A U87A A90U A111C,-5.52
17,G61U U116C U130G,-0.407
18,C62U C104U,0.0133
19,C62G C64U,-3.51
20,G61U U116C,0.227
21,C62U G63U U78G,-3.96
22,C62U G107U,-4.02
23,C62U G107A,-4.72
24,G63A A83C C102U G113U,-7.43

row,Variant,polymerase ribozyme fitness (log ratio)
1,G61U C64U,-3.25
2,C62U A108C G117U C124A,-6.3
3,C62U C123A,0.98
4,C62G G120C,-0.544
5,C62G G120A,-0.673
6,G61U G120C U125A,0.559
7,C62U C73U U112G,0.712
8,G61C U78C,-2
9,C62G G135U,-2.31
10,G61U C98U U129C,-0.95
11,G61U G93U,-0.532
12,C62U U78C U96G U129C,-0.314
13,C62U C64U C102A U126G,-4.31
14,G61C G128C,-4.34
15,G61U G63C,-3.05
16,G61U G63U,-4.98
17,C62U C76U G120C,0.583
18,G61U A111U,-1.75
19,C62A G117C A118C U131C,-5.12
20,C62A C72U G117A U129A U130C,-2.9
21,G61U U87C C99U C115G,-4.63
22,C62G G117A U131G,-4.48
23,G61C C115G,-4.37
24,C62U A66G,-1.54

row,Variant,polymerase ribozyme fitness (log ratio)
1,C62A G113A,-2.02
2,G61U G113A,-0.951
3,C62A C115A,-1.58
4,C62A U131C,-0.63
5,C62G A100U G120U,-3.32
6,C62A U96A U112C,-0.2
7,C62A G122A,-1.85
8,C62A G122U,0.143
9,C62U C80A A84C,-3.26
10,G61U U81C C82U A121C,0.807
11,G61U C85G C97U,-3.66
12,C62U G122A,-0.839
13,C62U G122U,0.2
14,G61U U130C,0.445
15,G61U A84G G93U G120U,-0.773
16,C62A A121C,0.464
17,G61C U133A,-1.7
18,C62A U81G G120A,-4.65
19,C62U G117C,-3.31
20,C62G C89A,-4.23
21,C62U C76G U78A,-0.661
22,G61U C123A,0.578
23,G61U C123G,1.2
24,C62U A74U U78C G120A,-0.246

row,Variant,polymerase ribozyme fitness (log ratio)
1,C62A C73A,-2.4
2,C62U A103U,-4.85
3,C62U A103G,-5.08
4,C62G C79U G110A,-2.71
5,C62G C85A C102U A121U C124U,-4.13
6,G61U U87G,0.809
7,G61C U125A,-1.89
8,C62A C79A C115A G127A,-3.94
9,G61U U81C C101G,-2.09
10,G61U C79U,0.149
11,C62A C114U,-2.2
12,G61U A74U G127U,-4.02
13,C62U G69A C97G G110C,-6.75
14,G63A A68G,-3.95
15,G61U A75C,-0.117
16,G61U A84C,0.447
17,C62A G128C,-3.8
18,G63A A66U U106A G117A,-4.86
19,G61C G110A,-3.32
20,G61C G110C,-5.94
21,G61C C123U,-0.994
22,C62A G117A,-2.71
23,C62A G117U,-3.38
24,C62U A74U G128C,-3

row,Variant,polymerase ribozyme fitness (log ratio)
1,C62U C88A,-0.404
2,G61C G127A,-2.71
3,C62G U116A,-4.13
4,C62G G110A,-3.33
5,C62G G110U,-2.94
6,C62A U78C,-1.1
7,G61U U78C A83U,-0.564
8,C62A A74U U81C,-5.14
9,G61U C89G A91U C124U,-0.422
10,C62A U109G,-6.74
11,C62A U109C,-4.04
12,C62A C124U,1.51
13,C62A C124A,1.01
14,C62A U106A,-1.37
15,G61U C82G C85U A119U,-0.891
16,G61U A100C U133G,-1.29
17,C62G C102U,-4.74
18,C62A A75G,-1.22
19,C62A C123U,0.181
20,C62A C123A,-0.607
21,C62A C123G,0.748
22,G61U C82U,-0.605
23,C62G G117A,-2.78
24,G61U U78C G117U,-1.99

row,Variant,polymerase ribozyme fitness (log ratio)
1,G63A A66U,-2.44
2,C62U C85G U87C,-2.53
3,G61U C101U A119G C124G,1.72
4,G61C U78A U106A G120A,0.446
5,G61C G77C C79U,-0.228
6,C62U C76U G127A,-2.58
7,G61U U78C,-0.574
8,G61U U78A,0.0643
9,C62U U78G,-0.0458
10,G61U A66C U92A,-4.97
11,G61U A66C U92C,-2.21
12,G61C G69U,-1.37
13,C62U G71C G120U A121C,0.341
14,C62A G110A U126G,-3.4
15,C62U G77U,-0.487
16,C62U U130A,-0.419
17,C62A G93C,-2.37
18,C62A G93A,-2.07
19,C62U G135A,-1.28
20,C62U C101U,-0.317
21,C62A C85U A121G,0.356
22,G61U C72G,-0.168
23,G61U C72A,0.45
